We go through 167 variants from the RNAGym collection of RNA variant scans (doi:10.7554/elife.90254).

B1: LINE1-full (parent)
chain: UACGUAGGUGGUUUUCCCCUGAUAGUGCUAAGGGGGCCUGGAAGUUUGGACUGGGCAGAGCUCAACACAGCGUGGCAAAGUGGCUGUGGCUAGACUGCCUCUCUGGAUUCCUCGUCACUCAGCAGGGCAUCUCUGAGAGAAAUGCC

The variants in this data set derive from B1. Description: self-cleavage, relative activity (ratio to wild type); higher = more cleavage; in vitro, sequencing; the parent is a self-cleaving ribozyme.
Take A50G G144A: the self-cleavage worked out at 1.46.
As to A50G G144C, the self-cleavage came out at 0.83.
In the case of A50G G144U, the self-cleavage came to 0.25.
Consider A50C U115C, for which the self-cleavage came to 1.84.
As for C51U A59G, the self-cleavage was 0.09.
For the variant A50C C146U, the self-cleavage was found to be 1.9.
Regarding U52G U143A, the self-cleavage was determined as 1.32.
As to U52G U143C, the self-cleavage was determined as 1.99.
With A50C C116U, the self-cleavage turned out to be 1.34.
Turning to U52A A77U, the self-cleavage was found to be 1.03.
The same measure for G53A A64G: 0.12; for A50U A67G: 0.33; for A50G G53C: 0.13.
With A50G C51U, the self-cleavage was 0.62.
On to U52A U85C, for which the self-cleavage worked out at 0.2.
Consider U52A G114C, for which the self-cleavage is 1.34.
For A50G U81A, the self-cleavage was determined as 1.3.
Turning to A50G U81C, the self-cleavage was determined as 0.7.
On to A50C C120U, for which the self-cleavage was 1.66.
As for U52C U62C, the self-cleavage was determined as 0.03.
With U52C U62A, the self-cleavage came out at 0.08.
For U52C A59U, the self-cleavage amounted to 0.72.
For G53A A57G, the self-cleavage was 0.73.
Take U52G U96C: the self-cleavage worked out at 0.55.
On to U52C U143A, for which the self-cleavage stood at 1.84.
For the variant U52C G54A, the self-cleavage was 0.74.
With U52A G54C, the self-cleavage came to 0.43.
Turning to G53U A107G, the self-cleavage is 1.08.
Consider A50U A142G, for which the self-cleavage came to 1.01.
Consider U52A U119C, for which the self-cleavage turned out to be 1.48.
With U52A U119A, the self-cleavage is 1.47.
Consider U52A U143A, for which the self-cleavage stood at 1.37.
For the variant U52C U112C, the self-cleavage was 1.5.
In the case of A50U A79G, the self-cleavage turned out to be 1.27.
To A50U A79C belongs 1.3; to U52C C116U, 1.39; to C51A U100C, 1.93.
G53A U81C: the self-cleavage stood at 0.67.
Turning to A50U C110A, the self-cleavage amounted to 1.53.
With G53U A65C, the self-cleavage is 0.07.
In the case of U52G U85C, the self-cleavage is 0.15.
A50G A141U: the self-cleavage amounted to 1.54.
The same measure for A50G A141G: 1; for G53U A140C: 0.8; for U52A C145U: 1.6.
U52C G53A: the self-cleavage was 0.6.
In the case of U52A U112A, the self-cleavage came to 0.8.
Regarding U52G G80C, the self-cleavage came out at 0.97.
For C51U U85A, the self-cleavage was 0.09.
To A50G C123U belongs 0.43; to U52A C128U, 1.38.
To U52C U130C belongs 1.84; to U52C U130A, 1.04.
As to G53A C128U, the self-cleavage is 1.34.
Regarding U52G A79G, the self-cleavage stood at 1.31.
For U52C U119A, the self-cleavage worked out at 1.16.
As to A50U U143C, the self-cleavage is 1.16.
As for G53A U134G, the self-cleavage is 0.56.
Take U52G A136G: the self-cleavage came out at 0.88.
The same measure for U52G A136U: 1.1.
The same measure for U52A A129U: 1.73; for U52A C116U: 1.18.
On to A50U G70C, for which the self-cleavage worked out at 0.
For the variant A50G G127A, the self-cleavage was determined as 0.68.
A50G U108C: the self-cleavage stood at 1.2.
To U52C A107G belongs 1.
Consider U52C U104C, for which the self-cleavage was 1.1.
The same measure for U52C U104A: 1.02.
As to U52C A92G, the self-cleavage worked out at 0.1.
Consider A50U U91A, for which the self-cleavage came to 0.34.
To U52C A121C belongs 1.92.
As to U52C A121G, the self-cleavage was determined as 1.41.
For U52C G89A, the self-cleavage turned out to be 0.05.
Turning to U52A U102C, the self-cleavage came to 0.88.
Regarding A50G A78U, the self-cleavage came to 1.2.
A50G A78G: the self-cleavage amounted to 0.53.
A50U U73C: the self-cleavage was found to be 2.09.
The same measure for U52C A67U: 0.16; for A50U G144A: 1.37.
As for A50U G144C, the self-cleavage turned out to be 0.79.
The same measure for C51U A142U: 0.87.
For A50G U119A, the self-cleavage was found to be 0.96.
Regarding A50C U104A, the self-cleavage is 0.87.
The same measure for A50G A138C: 1.12; for A50G A138G: 1.2.
The same measure for U52C U132C: 1.75; for A50C G82A: 2.06; for G53A G135U: 0.82.
With A50G U132C, the self-cleavage is 1.07.
As for A50C U112C, the self-cleavage came to 1.36.
On to U52G G144A, for which the self-cleavage is 1.34.
Take U52A A59U: the self-cleavage turned out to be 0.4.
In the case of U52A A59G, the self-cleavage is 0.03.
Consider A50G C68U, for which the self-cleavage came to 0.1.
To U52A C146A belongs 1.16; to U52C G88A, 0.04; to A50G C66U, 0.08.
In the case of A50G C66A, the self-cleavage turned out to be 0.06.
The same measure for A50G C56U: 0.06; for A50G G106A: 1.41.
On to C51G C71U, for which the self-cleavage stood at 1.5.
Consider A50U U132C, for which the self-cleavage came to 1.05.
For the variant U52A U87G, the self-cleavage was determined as 0.29.
To U52A U87A belongs 0.08.
On to A50U G86A, for which the self-cleavage turned out to be 0.06.
With U52C U134C, the self-cleavage was 1.01.
To U52C U134G belongs 2.76.
The same measure for A50G A136G: 1.04; for A50G A136U: 1.15.
For U52C G105A, the self-cleavage stood at 1.17.
As for U52C G114A, the self-cleavage came out at 1.24.
To U52C U91C belongs 0.67; to U52C U91A, 0.49; to A50G A69G, 0.35.
Take A50G A69U: the self-cleavage was 0.1.
Take U52A U130G: the self-cleavage came to 1.24.
Regarding U52C U102C, the self-cleavage was 1.14.
As for U52C U102A, the self-cleavage stood at 0.87.
In the case of U52C A129G, the self-cleavage was found to be 1.23.
Consider U52A U81G, for which the self-cleavage was found to be 1.63.
As for U52A U81C, the self-cleavage is 1.51.
Turning to U52A G82A, the self-cleavage worked out at 1.63.
On to U52A G82U, for which the self-cleavage was determined as 1.26.
As for U52A A79U, the self-cleavage was 2.26.
As to U52C U81C, the self-cleavage worked out at 1.08.
U52C U81G: the self-cleavage was found to be 1.31.
To G53C A136G belongs 0.36; to U52C C95G, 0.09; to A50G U87A, 0.03.
Regarding A50G U87G, the self-cleavage stood at 0.11.
Turning to A50G U87C, the self-cleavage worked out at 0.14.
The same measure for C51U U134C: 1.74.
Consider A50G A65U, for which the self-cleavage amounted to 0.24.
The same measure for A50G A65G: 0.14; for A50G A65C: 0.1; for G53A U87C: 0.18.
To U52C A65U belongs 0.19; to G53U A64U, 0.45; to U52A A92U, 0.86.
Turning to A50C A77U, the self-cleavage turned out to be 0.35.
The same measure for A50G G122A: 0.83.
Regarding A50G G93U, the self-cleavage is 0.05.
As for U52A C95A, the self-cleavage turned out to be 0.09.
Take A50U A124G: the self-cleavage is 0.71.
To U52A G126C belongs 1.81.
Regarding A50U A141U, the self-cleavage is 0.68.
For the variant G53A A69U, the self-cleavage turned out to be 0.07.
For C51U A136G, the self-cleavage amounted to 1.34.
On to U52A C110U, for which the self-cleavage turned out to be 1.23.
To U52A C110G belongs 1.15; to U52A C110A, 1.66; to G53A U109C, 0.27.
Turning to A50G U134A, the self-cleavage is 0.68.
In the case of A50U U115C, the self-cleavage was found to be 1.17.
With C51U U81C, the self-cleavage was found to be 1.57.
C51U C90A: the self-cleavage was 0.01.
On to G53A A129G, for which the self-cleavage was 1.4.
On to A50G G54A, for which the self-cleavage came out at 0.16.
C51U A69G: the self-cleavage was found to be 0.66.
C51U A69U: the self-cleavage stood at 0.04.
As to U52G A69U, the self-cleavage was 0.1.
As for U52A U115A, the self-cleavage was found to be 1.34.
Take U52A U115C: the self-cleavage was 1.42.
In the case of U52A U100C, the self-cleavage came out at 1.96.
On to C51U A65G, for which the self-cleavage was determined as 0.05.
With C51A U115C, the self-cleavage was 1.5.
To U52A A78G belongs 1.43.
